The values that follow come from publication PMC3995750, “Improved production of recombinant human Fas ligand extracellular domain in Pichia pastoris: yield enhancement using disposable culture-bag and its application to site-specific chemical modifications” (BMC Biotechnology, 2014).

For data set [1], the target named is T1, wild-type human Fas receptor extracellular domain fused to human IgG1-Fc domain with a thrombin cleavage site … (human, UniProt P25445 26-173).
T1 construct: human Fas receptor, extracellular domain; A thrombin cleavage site lies between the receptor part and the Fc; also called wild-type hFasRECD-T-Fc; hFasRECD-T-Fc
T1 sequence (looked up): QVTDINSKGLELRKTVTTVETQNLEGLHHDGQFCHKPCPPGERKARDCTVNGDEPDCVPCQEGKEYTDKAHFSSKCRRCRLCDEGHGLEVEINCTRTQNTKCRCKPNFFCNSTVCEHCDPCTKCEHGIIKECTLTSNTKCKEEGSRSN
The experiment in a line: co-IP; receptor-mediated ligand immunoprecipitation: purified hFasLECD sample with hFasRECD-T-Fc protein and Protein A-agarose beads (immunoprecipitation kit, Roche); precipitate analysed by SDS-PAGE. The conditions noted are these: both partners purified.

Data set [2] concerns the molecule itself. The data set can be described thus: SDS-PAGE with and without 2-mercaptoethanol; partially purified NFG1CG4-hFasLECD (main peak of the 1st cation-exchange chromatography, concentrated) in sample buffer with or without 2-mercaptoethanol; inter-subunit disulfide bond.

B1: tag-free human Fas ligand extracellular domain (139-281, N184Q, N250Q), N-glycan untrimmed (domain or fragment, UniProt P48023 139-281, looked up)
chain: EKKELRKVAHLTGKSNSRSMPLEWEDTYGIVLLSGVKYKKGGLVIQETGLYFVYSKVYFRGQSCNNLPLSHKVYMRNSKYPQDLVMMEGKMMSYCTTGQMWARSSYLGAVFQLTSADHLYVNVSELSLVNFEESQTFFGLYKL
modifications: remaining N-glycans, untrimmed
notes: human Fas ligand (281 aa), extracellular domain with residues 103-138 deleted, i.e. residues 139-281, with N184Q and N250Q; Secreted with the S. cerevisiae alpha-factor prepro signal; also called tag-free hFasLECD; N-glycan untrimmed tag-free hFasLECD; source: Pichia pastoris GS115 (Mut+), secreted, purified (two rounds of cation-exchange chromatography)
With B1, the binding result in data set [1] is “binds”.

B2: NFG1CG4-hFasLECD cross-linked with SUNBRIGHT DE-100MA, peak II of the size-exclusion chromatography (domain or fragment, human, UniProt P48023 139-281, looked up)
chain: EKKELRKVAHLTGKSNSRSMPLEWEDTYGIVLLSGVKYKKGGLVIQETGLYFVYSKVYFRGQSCNNLPLSHKVYMRNSKYPQDLVMMEGKMMSYCTTGQMWARSSYLGAVFQLTSADHLYVNVSELSLVNFEESQTFFGLYKL
modifications: cysteine in the N-terminal tag conjugated with SUNBRIGHT DE-100MA (linear polyethylene glycol of about 10 kDa with a maleimide group at either end): two subunits cross-linked by one molecule, or one subunit conjugated with one molecule; unreacted cysteines capped with N-Ethylmaleimide
notes: human Fas ligand (281 aa), residues 139-281 with N184Q and N250Q; not shown: FLAG-GlyCys(Gly)4, N-terminal, kept
On to B2, for which, in data set [1], the binding result is reported as “binds”.

B3: SUNBRIGHT ME-050MA conjugated NFG1CG4-hFasLECD (domain or fragment, human, UniProt P48023 139-281, looked up)
chain: EKKELRKVAHLTGKSNSRSMPLEWEDTYGIVLLSGVKYKKGGLVIQETGLYFVYSKVYFRGQSCNNLPLSHKVYMRNSKYPQDLVMMEGKMMSYCTTGQMWARSSYLGAVFQLTSADHLYVNVSELSLVNFEESQTFFGLYKL
modifications: cysteine in the N-terminal tag conjugated with SUNBRIGHT ME-050MA (linear methoxy polyethylene glycol of about 5 kDa with one maleimide group); a small fraction of subunits not conjugated
notes: human Fas ligand (281 aa), residues 139-281 with N184Q and N250Q; also called SUNBRIGHT ME-050MA adduct of NFG1CG4-hFasLECD; not shown: FLAG-GlyCys(Gly)4, N-terminal, kept
In the case of B3, the binding result in data set [1] is “binds”.

B4: N-Ethylmaleimide conjugated NFG1CG4-hFasLECD (domain or fragment, human, UniProt P48023 139-281, looked up)
chain: EKKELRKVAHLTGKSNSRSMPLEWEDTYGIVLLSGVKYKKGGLVIQETGLYFVYSKVYFRGQSCNNLPLSHKVYMRNSKYPQDLVMMEGKMMSYCTTGQMWARSSYLGAVFQLTSADHLYVNVSELSLVNFEESQTFFGLYKL
modifications: cysteine in the N-terminal tag conjugated with N-Ethylmaleimide
notes: human Fas ligand (281 aa), residues 139-281 with N184Q and N250Q; also called N-Ethylmaleimide adduct of NFG1CG4-hFasLECD; not shown: FLAG-GlyCys(Gly)4, N-terminal, kept
Take B4: the binding result in data set [1] is given as “binds”.

B5: N-terminal FLAG-(Gly)5 tagged human Fas ligand extracellular domain (aa 139-281, N184Q, N250Q) (domain or fragment, UniProt P48023 139-281, looked up)
chain: EKKELRKVAHLTGKSNSRSMPLEWEDTYGIVLLSGVKYKKGGLVIQETGLYFVYSKVYFRGQSCNNLPLSHKVYMRNSKYPQDLVMMEGKMMSYCTTGQMWARSSYLGAVFQLTSADHLYVNVSELSLVNFEESQTFFGLYKL
notes: human Fas ligand (281 aa), residues 139-281 with N184Q and N250Q; Positive control of the co-immunoprecipitation; also called NFG5-hFasLECD; not shown: FLAG-(Gly)5, N-terminal, kept
Consider B5, for which the binding result in data set [1] is reported as “binds”.

B6: N-glycan trimmed tag-free human Fas ligand extracellular domain (139-281, N184Q, N250Q) (domain or fragment, UniProt P48023 139-281, looked up)
chain: EKKELRKVAHLTGKSNSRSMPLEWEDTYGIVLLSGVKYKKGGLVIQETGLYFVYSKVYFRGQSCNNLPLSHKVYMRNSKYPQDLVMMEGKMMSYCTTGQMWARSSYLGAVFQLTSADHLYVNVSELSLVNFEESQTFFGLYKL
modifications: N-glycans trimmed with Endo Hf
notes: human Fas ligand (281 aa), residues 139-281 with N184Q and N250Q; Same chain as m1 after Endo Hf digestion; also called N-glycan trimmed tag-free hFasLECD; source: Pichia pastoris GS115 (Mut+), secreted, purified; digested with Endo Hf, Con A-agarose flow-through, Mono S cation-exchange
In the case of B6, the binding result in data set [1] is “binds”.

B7: NFG1CG4-tagged human Fas ligand extracellular domain (139-281, N184Q, N250Q), not conjugated (domain or fragment, UniProt P48023 139-281, looked up)
chain: EKKELRKVAHLTGKSNSRSMPLEWEDTYGIVLLSGVKYKKGGLVIQETGLYFVYSKVYFRGQSCNNLPLSHKVYMRNSKYPQDLVMMEGKMMSYCTTGQMWARSSYLGAVFQLTSADHLYVNVSELSLVNFEESQTFFGLYKL
modifications: cysteine in the N-terminal tag, partly in a possible inter-subunit disulfide bond
notes: human Fas ligand (281 aa), residues 139-281 with N184Q and N250Q; Made from the NFG5-hFasLECD gene by an insertion mutation that adds a cysteine in the (Gly)5 region of the tag; also called NFG1CG4-hFasLECD; source: Pichia pastoris GS115 (Mut+), secreted; 40-fold concentrated culture supernatant; partially purified by cation-exchange chromatography; not shown: FLAG-GlyCys(Gly)4, N-terminal, kept
Consider B7, for which the binding result in data set [2] is recorded as “binds”.

B8: NFG1CG4-hFasLECD cross-linked with SUNBRIGHT DE-100MA, peak III of the size-exclusion chromatography (domain or fragment, human, UniProt P48023 139-281, looked up)
chain: EKKELRKVAHLTGKSNSRSMPLEWEDTYGIVLLSGVKYKKGGLVIQETGLYFVYSKVYFRGQSCNNLPLSHKVYMRNSKYPQDLVMMEGKMMSYCTTGQMWARSSYLGAVFQLTSADHLYVNVSELSLVNFEESQTFFGLYKL
modifications: cysteine in the N-terminal tag conjugated with SUNBRIGHT DE-100MA (linear polyethylene glycol of about 10 kDa with a maleimide group at either end): two subunits cross-linked by one molecule, or one subunit conjugated with one molecule; unreacted cysteines capped with N-Ethylmaleimide
notes: as for B2
Consider B8, for which the binding result in data set [1] is “binds”.
